Measured values as given in the Immune Epitope Database (IEDB).

How the values were obtained:
HLA-A*02:02 = assay: IEDB peptide-MHC binding, purified MHC/competitive/radioactivity; ≥ and ≤ were set here for values at or beyond the usual limits of such assays
HLA-A*02:01 [1] = assay: as above
HLA-A*68:02 [2] = assay: as above
HLA-A*02:03 = assay: IEDB peptide-MHC binding, cellular MHC/competitive/fluorescence; ≥ and ≤ were set here for values at or beyond the usual limits of such assays
HLA-A*02:06 [3] = assay: as above
HLA-A*02:06 [4] = assay: IEDB peptide-MHC binding, purified MHC/competitive/radioactivity; ≥ and ≤ were set here for values at or beyond the usual limits of such assays
HLA-A*02:01 [5] = assay: IEDB peptide-MHC binding, cellular MHC/competitive/fluorescence; ≥ and ≤ were set here for values at or beyond the usual limits of such assays
HLA-A*68:02 [6] = assay: as above
[7] = source organism: Vaccinia virus WR
[8] = source organism: Influenza A virus
[9] = source organism: Mammarenavirus choriomeningitidis
[10] = source organism: Mammarenavirus brazilense
[11] = source organism: Mammarenavirus guanaritoense
[12] = source organism: Mammarenavirus machupoense

Sequence	IC50 (HLA-A*02:02; [7])	IC50 (HLA-A*68:02 [2]; [7])	IC50 (HLA-A*02:03; [7])	IC50 (HLA-A*02:06 [3]; [7])	IC50 (HLA-A*02:01 [5]; [7])	other results
DVQRTRCKYV	1070 nM	1460 nM	6.46 µM	9.51 µM		IC50 (HLA-A*02:01 [1]; [7]): 1570 nM
CAAMDDFQL						IC50 (HLA-A*02:02; [8]): 1010 nM; IC50 (HLA-A*02:06 [4]; [8]): 2100 nM; IC50 (HLA-A*02:03; [8]): 22.8 µM; IC50 (HLA-A*02:01 [5]; [8]): 10.9 µM; IC50 (HLA-A*68:02 [6]; [8]): 5.07 µM
RTRCKYVGCT	149 nM	4690 nM	12.3 µM	11.6 µM	48.5 µM	
RAGYSIVEL	4940 nM	1210 nM	5.39 µM	5.07 µM		IC50 (HLA-A*02:01 [1]; [7]): 5000 nM
IASKINNNRI	732 nM	163 nM	18.5 µM	9.42 µM	30.8 µM	
NIEIMDKEQL	3470 nM	1380 nM	15.5 µM	5.65 µM		IC50 (HLA-A*02:01 [1]; [7]): 4660 nM
SCDDVVFGI						IC50 (HLA-A*02:02; [9]): 2150 nM; IC50 (HLA-A*68:02 [2]; [9]): 306 nM; IC50 (HLA-A*02:03; [9]): 50.5 µM; IC50 (HLA-A*02:01 [5]; [9]): 5.61 µM; IC50 (HLA-A*02:06 [3]; [9]): 14.6 µM
LNISGYNYSL						IC50 (HLA-A*02:02; [10]): 77 nM; IC50 (HLA-A*02:06 [4]; [10]): 1100 nM; IC50 (HLA-A*02:03; [10]): 49 µM; IC50 (HLA-A*02:01 [5]; [10]): 10.6 µM; IC50 (HLA-A*68:02 [6]; [10]): 12.9 µM
NQLDSSNKSM	1780 nM		30 µM		17.1 µM	IC50 (HLA-A*02:06 [4]; [7]): 635 nM; IC50 (HLA-A*68:02 [6]; [7]): 52.7 µM
TVSSFQDIL						IC50 (HLA-A*02:02; [8]): 457 nM; IC50 (HLA-A*68:02 [2]; [8]): 846 nM; IC50 (HLA-A*02:03; [8]): 8.97 µM; IC50 (HLA-A*02:01 [5]; [8]): 40.7 µM; IC50 (HLA-A*02:06 [3]; [8]): 13.8 µM
HLTENNLYI	114 nM		14.4 µM			IC50 (HLA-A*02:01 [1]; [7]): 15 nM; IC50 (HLA-A*02:06 [4]; [7]): 1810 nM; IC50 (HLA-A*68:02 [6]; [7]): 5.81 µM
MNNVVQALT						IC50 (HLA-A*02:02; [11]): 2290 nM; IC50 (HLA-A*68:02 [2]; [11]): 281 nM; IC50 (HLA-A*02:03; [11]): 21.5 µM; IC50 (HLA-A*02:01 [5]; [11]): 7.48 µM; IC50 (HLA-A*02:06 [3]; [11]): ≥ 70 µM
DTSNNIAEYI	3330 nM	47 nM	9.22 µM	45.7 µM	6.29 µM	
VLTSVDIET	382 nM		11.3 µM			IC50 (HLA-A*02:01 [1]; [7]): 136 nM; IC50 (HLA-A*02:06 [4]; [7]): 14 nM; IC50 (HLA-A*68:02 [6]; [7]): 37.5 µM
TQSGALEVLM	836 nM		15.4 µM		10.6 µM	IC50 (HLA-A*02:06 [4]; [7]): 2230 nM; IC50 (HLA-A*68:02 [6]; [7]): 12.3 µM
TVGMLIYSM	490 nM	1790 nM	6.09 µM	9.18 µM		IC50 (HLA-A*02:01 [1]; [7]): 809 nM
DAEFVMCLEA	2410 nM	1590 nM	7.3 µM	12.7 µM	9.14 µM	
WLRAKRKPAM	4670 nM	2860 nM	20.1 µM	11.9 µM	22.5 µM	
GILHLILWIL						IC50 (HLA-A*02:02; [8]): 4520 nM; IC50 (HLA-A*02:06 [4]; [8]): 2540 nM; IC50 (HLA-A*02:03; [8]): 7.7 µM; IC50 (HLA-A*02:01 [5]; [8]): 16.7 µM; IC50 (HLA-A*68:02 [6]; [8]): 8.03 µM
FVETLARSI						IC50 (HLA-A*02:02; [8]): 382 nM; IC50 (HLA-A*02:06 [4]; [8]): 4330 nM; IC50 (HLA-A*02:03; [8]): 6.18 µM; IC50 (HLA-A*02:01 [5]; [8]): 5.26 µM; IC50 (HLA-A*68:02 [6]; [8]): 11.7 µM
LCFWSAIFFT						IC50 (HLA-A*02:02; [11]): 2610 nM; IC50 (HLA-A*68:02 [2]; [11]): 1820 nM; IC50 (HLA-A*02:03; [11]): 30.3 µM; IC50 (HLA-A*02:01 [5]; [11]): 5.57 µM; IC50 (HLA-A*02:06 [3]; [11]): 34.6 µM
QIYLSDSDNI	1240 nM	658 nM	19.6 µM	14.9 µM	24.9 µM	
YVHSLLYSSM	2200 nM		6.71 µM		29 µM	IC50 (HLA-A*02:06 [4]; [7]): 2250 nM; IC50 (HLA-A*68:02 [6]; [7]): 7.25 µM
LNKSDSSWAV						IC50 (HLA-A*02:02; [12]): 550 nM; IC50 (HLA-A*02:01 [1]; [12]): 1230 nM; IC50 (HLA-A*02:06 [4]; [12]): 2190 nM; IC50 (HLA-A*02:03; [12]): 5.25 µM; IC50 (HLA-A*68:02 [6]; [12]): 8.7 µM
DTCLLAISA	4330 nM	316 nM	6.45 µM	25.2 µM	6.69 µM	
KIDKLTFQI	141 nM		10.6 µM			IC50 (HLA-A*02:01 [1]; [7]): 134 nM; IC50 (HLA-A*02:06 [4]; [7]): 42 nM; IC50 (HLA-A*68:02 [6]; [7]): 36.9 µM
IASILSLET	3660 nM		7.48 µM			IC50 (HLA-A*02:01 [1]; [7]): 2540 nM; IC50 (HLA-A*02:06 [4]; [7]): 318 nM; IC50 (HLA-A*68:02 [6]; [7]): 7.76 µM
